In PMC7545097, “Mapping the native interaction surfaces of PREP1 with PBX1 by cross-linking mass-spectrometry and mutagenesis” (Scientific Reports, 2020):
Changes are numbered by the printed parent chain.

Key:
Test in all cases: time-resolved fluorescence immunoassay (TR-FIA); plate coated with monoclonal anti-PBX1; PBX1 pre-incubated with PREP1 or MEIS1 for 1 h on ice, 10 µg/mL in 1% BSA PBS, 1 h at room temperature on the plate; detected with anti-PREP1 or biotinylated anti-MEIS1/2 and Eu^3+ conjugates; normalised to the wild-type protein taken as 1
Settings in all cases: both partners purified
PBX1 I204A = biological target: T1, PBX1 I204A (human, UniProt P40424 1-430, I204A)
T1 construct: PBX1, residues 1-430; source: E. coli, purified
T1 sequence (looked up): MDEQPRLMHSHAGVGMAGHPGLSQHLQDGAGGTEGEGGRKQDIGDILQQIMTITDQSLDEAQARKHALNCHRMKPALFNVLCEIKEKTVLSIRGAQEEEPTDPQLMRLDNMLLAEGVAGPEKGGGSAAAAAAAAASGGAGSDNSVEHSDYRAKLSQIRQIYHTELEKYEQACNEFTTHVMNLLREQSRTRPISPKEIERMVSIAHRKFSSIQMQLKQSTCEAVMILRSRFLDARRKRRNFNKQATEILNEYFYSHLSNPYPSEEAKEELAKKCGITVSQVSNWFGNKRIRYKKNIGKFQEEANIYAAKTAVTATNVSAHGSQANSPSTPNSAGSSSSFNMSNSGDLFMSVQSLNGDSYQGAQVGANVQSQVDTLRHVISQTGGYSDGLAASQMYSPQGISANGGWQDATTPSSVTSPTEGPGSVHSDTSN

PBX1 Δ105-113 = biological target: T2, PBX1 Δ105-113 (human, UniProt P40424 1-430, Δ105-113)
T2 construct: PBX1, residues 1-430, with an internal deletion; source: E. coli, purified
T2 sequence (looked up): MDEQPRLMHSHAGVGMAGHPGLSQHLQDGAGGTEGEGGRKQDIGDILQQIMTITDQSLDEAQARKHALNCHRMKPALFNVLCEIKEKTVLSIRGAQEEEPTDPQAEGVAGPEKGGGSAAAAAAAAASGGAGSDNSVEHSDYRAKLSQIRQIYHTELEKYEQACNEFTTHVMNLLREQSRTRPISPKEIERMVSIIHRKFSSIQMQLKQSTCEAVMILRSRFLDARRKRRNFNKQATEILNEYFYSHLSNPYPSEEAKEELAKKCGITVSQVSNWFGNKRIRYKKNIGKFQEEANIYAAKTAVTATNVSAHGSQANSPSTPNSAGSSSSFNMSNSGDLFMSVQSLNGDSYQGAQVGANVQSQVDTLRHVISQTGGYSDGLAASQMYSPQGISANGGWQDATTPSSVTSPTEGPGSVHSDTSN

PBX1 I211A = biological target: T3, PBX1 I211A (human, UniProt P40424 1-430, I211A)
T3 construct: PBX1, residues 1-430; source: E. coli, purified
T3 sequence (looked up): T1 sequence (looked up) with A204I, I211A

[1] = biological target: T4, PBX1 with substitution of both 204 and 211 residues (I204A/I211A) (human, UniProt P40424 1-430, I204A | I211A)
T4 construct: PBX1, residues 1-430; source: E. coli, purified
T4 sequence (looked up): T1 sequence (looked up) with I211A

binding relative to wild type (PBX1 I204A): ~65% | binding relative to wild type (PBX1 Δ105-113): 75% | binding relative to wild type (PBX1 I211A): ~65% | binding relative to wild type [1]: ~50%
B1: PREP1_(1-436), wild-type recombinant (TR-FIA) (natural protein, UniProt P55347 1-436, looked up)
chain: MMATQTLSIDSYQDGQQMQVVTELKTEQDPNCSEPDAEGVSPPPVESQTPMDVDKQAIYRHPLFPLLALLFEKCEQSTQGSEGTTSASFDVDIENFVRKQEKEGKPFFCEDPETDNLMVKAIQVLRIHLLELEKVNELCKDFCSRYIACLKTKMNSETLLSGEPGSPYSPVQSQQIQSAITGTISPQGIVVPASALQQGNVAMATVAGGTVYQPVTVVTPQGQVVTQTLSPGTIRIQNSQLQLQLNQDLSILHQDDGSSKNKRGVLPKHATNVMRSWLFQHIGHPYPTEDEKKQIAAQTNLTLLQVNNWFINARRRILQPMLDSSCSETPKTKKKTAQNRPVQRFWPDSIASGVAQPPPSELTMSEGAVVTITTPVNMNVDSLQSLSSDGATLAVQQVMMAGQSEDESVDSTEEDAGALAPAHISGLVLENSDSLQ
notes: also called wild-type PREP1; PKNOX1; source: E. coli, purified
